Assay results from US20070105925A1.

Columns and labels:
[1] = target: human recombinant (hr) ACE2 (human) (UniProt Q9BYF1); assay: cell-based or functional assay
[2] = test system: T1, 7-methoxycoumarin-Tyr-Val-Ala-Pro-(2,4-dinitrophenyl)Lys
T1 sequence: YVAPK

human recombinant (hr) ACE2 (human), sequence (Q9BYF1 18-740 limits assumed): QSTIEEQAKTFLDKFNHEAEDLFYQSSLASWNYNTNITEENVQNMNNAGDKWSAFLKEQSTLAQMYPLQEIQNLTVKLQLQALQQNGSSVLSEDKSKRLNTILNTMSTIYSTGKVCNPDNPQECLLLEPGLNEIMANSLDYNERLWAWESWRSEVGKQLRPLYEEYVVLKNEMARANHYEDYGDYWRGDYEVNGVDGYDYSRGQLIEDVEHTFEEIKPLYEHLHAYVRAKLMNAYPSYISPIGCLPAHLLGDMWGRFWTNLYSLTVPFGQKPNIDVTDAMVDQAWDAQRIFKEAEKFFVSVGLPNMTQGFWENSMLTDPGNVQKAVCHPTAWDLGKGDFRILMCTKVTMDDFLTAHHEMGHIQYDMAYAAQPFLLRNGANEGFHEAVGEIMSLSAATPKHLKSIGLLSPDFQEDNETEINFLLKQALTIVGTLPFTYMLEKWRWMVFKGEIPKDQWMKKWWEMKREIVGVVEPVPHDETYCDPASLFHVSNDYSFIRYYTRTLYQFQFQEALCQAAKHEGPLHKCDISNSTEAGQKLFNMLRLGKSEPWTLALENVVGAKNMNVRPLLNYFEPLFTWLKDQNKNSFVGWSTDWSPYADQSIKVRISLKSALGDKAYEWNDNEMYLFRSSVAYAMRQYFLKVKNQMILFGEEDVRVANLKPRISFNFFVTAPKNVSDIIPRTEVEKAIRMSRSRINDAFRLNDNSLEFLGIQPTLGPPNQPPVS

quenching of the fluorescence signal from cleavage of 7-Mca-YVADAPK(Dnp) by hrACE2 (enzyme inhibition) [1] [nmol/L] | Substance | fluorescence from cleavage of the substrate, hACE2 spiked into kidney extract of an ACE2-knockout mouse [2]
100 | DX600 (peptide) | –
– | human recombinant (hr) ACE2 | the fluorescence signal was recovered in a dose dependent manner, with a linear relationship (r=0.990, p<0.001) in the range of 0.4 to 50 ng ACE2 protein/well
